Laboratory results taken from patent US20230095569A1 (published 2023).

Key:
[1] = target: T1, human Claudin18.2 (CLDN18.2) (UniProt P56856 1-261); assay: FACS cell binding; SNU620 cells
[2] = target: T1, human Claudin18.2 (CLDN18.2); assay: FACS cell binding; KATO III cells
[3] = target: T1, human Claudin18.2 (CLDN18.2); assay: FACS cell binding; GAXC031 cells
[4] = target: SNU620 cells (UniProt P56856 1-261); assay: FACS cell binding; SNU620 cells
[5] = target: GAXC031 cells (UniProt P56856 1-261); assay: FACS cell binding; GAXC031 cells

| Binder | EC50 [3] [nM] | other results |
| --- | --- | --- |
| Ab10 (antibody, V domains shown) VH: EVMLVESGGGLVKPGGSLKLSCAASGFTFSSYTMSWVRQTPEKRLEWVATISVIGGNTYYVDSVKGRFTISRDKAKNTLYLQMSSLRSEDTALYYCARLGQTQRNAMDYWGQGTSVTVSS VL: DIVMTQSPSSLSVSAGEKVTMSCKSSQSLLNSGNQKNYLAWYQQKPGQPPKLLIYGASTRESGVPDRFTGSGSGTDFTLTISSVQAEDLAVYYCQNDYSYPLTFGAGTKLELK |  | EC50 [1]: 5.54 nM; EC50 [2]: 20.9 nM |
| chAb17 (antibody, V domains shown) VH: QVQLKESGPGLVAPSQSLSITCTVSGFSLTSYAISWVRQPPGKGLEWLGEIWTGGGTNYNSALKSRLSISKDNSKSQVFLKMNSLQTDDTARYYCGRLSYGNSLDYWGQGTTLTVSS VL: DIVMTQSPSSLTVTAGEKVTMSCKSSQSLLNSGNQKNYLTWYQQKPGQPPKLLIYWASTRESGVPDRFTGSGSGTDFTLTVSSVQAEDLAVYYCQNNFIYPLTFGPGTKLELK | 47 |  |
| Ab15 (antibody, V domains shown) VH: EVMLVESGGDLVKPGGSLKLSCAASGFTFSTYTMSWVRQTPEKRLEWVATIVGGGGYTYYLDSVKGRFTISRDNAKNTLYLQMISLRSEDTALYYCARMGLTQRNALDYWGQGTSITVSS VL: DIVMTQSPSSLSVSEGEKVTLNCKSSQSLFNSGNQKNYLAWYQQKPGQPPKLLIYGASTRESGVPDRFTGSGFGTDFTLTISSVQAEDLAVYYCQNDHTYPLTFGAGAKLELK |  | EC50 [1]: 5.32 nM; EC50 [2]: 27.2 nM |
| Ab17 (antibody, V domains shown) VH: QVQLKESGPGLVAPSQSLSITCTVSGFSLTSYAISWVRQPPGKGLEWLGEIWTGGGTNYNSALKSRLSISKDNSKSQVFLKMNSLQTDDTARYYCGRLSYGNSLDYWGQGTTLTVSS VL: DIVMTQSPSSLTVTAGEKVTMSCKSSQSLLNSGNQKNYLTWYQQKPGQPPKLLIYWASTRESGVPDRFTGSGSGTDFTLTVSSVQAEDLAVYYCQNNFIYPLTFGPGTKLELK |  | EC50 [1]: 10.8 nM; EC50 [2]: 39.3 nM |
| chAb10 (antibody, V domains shown) VH: EVMLVESGGGLVKPGGSLKLSCAASGFTFSSYTMSWVRQTPEKRLEWVATISVIGGNTYYVDSVKGRFTISRDKAKNTLYLQMSSLRSEDTALYYCARLGQTQRNAMDYWGQGTSVTVSS VL: DIVMTQSPSSLSVSAGEKVTMSCKSSQSLLNSGNQKNYLAWYQQKPGQPPKLLIYGASTRESGVPDRFTGSGSGTDFTLTISSVQAEDLAVYYCQNDYSYPLTFGAGTKLELK | 49.2 |  |
| chAb15 (antibody, V domains shown) VH: EVMLVESGGDLVKPGGSLKLSCAASGFTFSTYTMSWVRQTPEKRLEWVATIVGGGGYTYYLDSVKGRFTISRDNAKNTLYLQMISLRSEDTALYYCARMGLTQRNALDYWGQGTSITVSS VL: DIVMTQSPSSLSVSEGEKVTLNCKSSQSLFNSGNQKNYLAWYQQKPGQPPKLLIYGASTRESGVPDRFTGSGFGTDFTLTISSVQAEDLAVYYCQNDHTYPLTFGAGAKLELK | 25.1 |  |
| IMB362 (antibody, V domains shown) VH: QVQLQQPGAELVRPGASVKLSCKASGYTFTSYWINWVKQRPGQGLEWIGNIYPSDSYTNYNQKFKDKATLTVDKSSSTAYMQLSSPTSEDSAVYYCTRSWRGNSFDYWGQGTTLTVSS VL: DIVMTQSPSSLTVTAGEKVTMSCKSSQSLLNSGNQKNYLTWYQQKPGQPPKLLIYWASTRESGVPDRFTGSGSGTDFTLTISSVQAEDLAVYYCQNDYSYPFTFGSGTKLEIKR |  | EC50 [4]: ~7540 nM |
| IMAB362 (antibody, V domains shown) VH: QVQLQQPGAELVRPGASVKLSCKASGYTFTSYWINWVKQRPGQGLEWIGNIYPSDSYTNYNQKFKDKATLTVDKSSSTAYMQLSSPTSEDSAVYYCTRSWRGNSFDYWGQGTTLTVSS VL: DIVMTQSPSSLTVTAGEKVTMSCKSSQSLLNSGNQKNYLTWYQQKPGQPPKLLIYWASTRESGVPDRFTGSGSGTDFTLTISSVQAEDLAVYYCQNDYSYPFTFGSGTKLEIKR |  | EC50 [5]: 452 nM |
| humanized Ab17 (VH5×VLN1) (antibody, V domains shown) VH: QVQLQESGPGLVKPSQTLSLTCTVSGFSLTSYAISWVRQPAGKGLEWLGEIWTGGGTNYNSALKSRVSISKDNSKSQVFLKLSSVTAADTARYYCGRLSYGNSLDYWGQGTLVTVSS VL: DIVMTQSPDSTTVLLGERATINCKSSQSLLNSGNQKNYLAWYQQKPGQPPKLLIYWASTRESGVPDRFSGSGSGTDFTLTISSLQAEDVAVYYCQNNFIYPLTFGPGTKLEIK | 48.9 |  |
| humanized Ab10 (VH3×VLN1) (antibody, V domains shown) VH: EVQLVESGGGLVQPGGSLRLSCAASGFTFSSYTMSWVRQAPEKRLEWVATISVIGGNTYYVDSVKGRFTISRDKAKNTLYLQMNSLRAEDTALYYCARLGQTQRNAMDYWGQGTLVTVSS VL: DIVMTQSPDSLAVSAGERATMNCKSSQSLLNSGNQKNYLAWYQQKPGQPPKLLIYGASTRESGVPDRFSGSGSGTDFTLTISSLQAEDVAVYYCQNDYSYPLTFGAGTKLEIK | 60.9 |  |
| humanized Ab15 (VH3×VLN1) (antibody, V domains shown) VH: EVMLVESGGGVVQPGGSLRLSCAASGFTFSTYTMSWVRQTPEKRLEWVATIVGGGGYTYYLDSVKGRFTISRDNAKNTLYLQMNSLRTEDTALYYCARMGLTQRNALDYWGQGTLITVSS VL: DIVMTQSPDSLAVSLGERATINCKSSQSLFNSGNQKNYLAWYQQKPGQPPKLLIYGASTRESGVPDRFSGSGFGTDFTLTISSLQAEDVAVYYCQNDHTYPLTFGAGTKLEIK | 28.6 |  |
| humanized Ab10 (VHN1×VLN1) (antibody, V domains shown) VH: EVMLVESGGGLVQPGGSLRLSCAASGFTFSSYTMSWVRQTPGKRLEWVATISVIGGNTYYVDSVKGRFTISRDKSKNTLYLQMNSLRAEDTAVYYCARLGQTQRNAMDYWGQGTLVTVSS VL: DIVMTQSPDSLAVSAGERATMNCKSSQSLLNSGNQKNYLAWYQQKPGQPPKLLIYGASTRESGVPDRFSGSGSGTDFTLTISSLQAEDVAVYYCQNDYSYPLTFGAGTKLEIK | 43.8 |  |
| humanized Ab17 (VH1×VLN1) (antibody, V domains shown) VH: QVQLKESGPGLVKPSETLSLTCTVSGFSLTSYAISWVRQPPGKGLEWLGEIWTGGGTNYNSALKSRVSISKDNSKSQVFLKLSSVQAADTARYYCGRLSYGNSLDYWGQGTLVTVSS VL: DIVMTQSPDSTTVLLGERATINCKSSQSLLNSGNQKNYLAWYQQKPGQPPKLLIYWASTRESGVPDRFSGSGSGTDFTLTISSLQAEDVAVYYCQNNFIYPLTFGPGTKLEIK | 43.7 |  |
| humanized Ab15 (VHN1×VL2) (antibody, V domains shown) VH: EVMLVESGGGLVQPGGSLRLSCAASGFTFSTYTMSWVRQTPGKRLEWVATIVGGGGYTYYLDSVKGRFTISRDNSKNTLYLQMNSLRAEDTAVYYCARMGLTQRNALDYWGQGTSITVSS VL: DIVMTQSPLSLPVTPGEPASISCKSSQSLFNSGNQKNYLAWYLQKPGQPPKLLIYGASTRESGVPDRFTGSGFGTDFTLKISRVEAEDVGVYYCQNDHTYPLTFGAGTKLEIK | 32.2 |  |
